{"source": "paper PMC7546529", "about": "(Nature microbiology, 2020)", "proteins": {"B1": {"name": "portal protein (BBRF1 gene-encoded portal complex) (natural protein)", "chain": "MFNMNVDESASGALGSSAIPVHPTPASVRLFEILQGKYAYVQGQTIYANLRNPGVFSRQVFTHLFKRAISHCTYDDVLHDWNKFEACIQKRWPSDDSCASRFRESTFESWSTTMKLTVRDLLTTNIYRVLHSRSVLSYERYVDWICATGMVPAVKKPITQELHSKIKSLRDRCVCRELGHERTIRSIGTELYEATKEIIESLNSTFIPQFTEVTIEYLPRSDEYVAYYCGRRIRLHVLFPPAIFAGTVTFDSPVQRLYQNIFMCYRTLEHAKICQLLNTAPLKAIVGHGGRDMYKDILAHLEQNSQRKDPKKELLNLLVKLSENKTISGVTDVVEEFITDASNNLVDRNRLFGQPGETAAQGLKKKVSNTVVKCLTDQINEQFDQINGLEKERELYLKKIRSMESQLQASLGPGGNNPAASAPAAVAAEAASVDILTGSTASAIEKLFNSPSASLGARVSGHNESILNSFVSQYIPPSREMTKDLTELWESELFNTFKLTPVVDNQGQRLYVRYSSDTISILLGPFTYLVAELSPVELVTDVYATLGIVEIIDELYRSSRLAIYIEDLGRKYCPASATGGDHGIRQAPSARGDTEPDHAKSKPARDPPPGAGS"}}, "target": "the molecule itself", "test": "cryo-EM structure", "data": [{"protein": "B1", "values": [{"measurement": "stoichiometry N", "result": 12}]}]}
